Results from PMC9355583, “Validation of the solution structure of dimerization domain of PRC1” (PLoS ONE, 2022).

Target: the molecule itself
Experiment: cross-linking; PEG5 cross-linker (0.1 M-1 M), protein at 20 nM and 50 nM, 50 mM PBS, 50 mM NaCl, pH 7.0, 25 °C, 30 min, read by SDS-PAGE

B1: PRC1 dimerization domain (PRC1-DD, aa: 1-65) (domain or fragment, human, UniProt O43663-1 1-65, looked up)
chain: MRRSEVLAEESIVCLQKALNHLREIWELIGIPEDQRLQRTEVVKKHIKELLDMMIAEEESLKERL
notes: Protein Regulator of Cytokinesis 1 (PRC1), human, isoform 1 (NP_003972; full length 620 residues), N-terminal dimerization domain, residues 1-65; Cloned between NdeI and XhoI of pET-21a with a C-terminal His-tag; no cleavage of the tag is described; For NMR the protein was 15N- or 15N/13C-labelled; also called DD WT; PRC-DD; source: E. coli BL21 (DE3) or Rosseta (DE3), purified (His-Trap HP, …)
- stoichiometry N: 2
